Source: article doi:10.1101/2025.08.05.667158, “Antagonistic insulin mimetics lock the insulin receptor in an alternative apo-state” (bioRxiv, 2025)
Positions of bridges follow the written chain, without caps; N, C: chain ends. Chains are numbered I, II in the order given. No end group written: not given here. adamantane scaffold = adamantane core scaffold to which the peptide C-termini are attached

Target: T1, IR-A in cell membranes of human IM-9 lymphocytes (human (endogenous in IM-9), UniProt P06213-2 28-1370)
T1 construct: human insulin receptor, isoform A (IR-A); Heterotetramer (alpha alpha' beta beta') of two protomers, each cut into an alpha and a beta subunit; written as one chain for the protomer; In the functional rows this molecule stands for human IR-A stably transfected in mouse embryonic fibroblasts; also called insulin receptor; source: endogenous, cell membranes of human IM-9 lymphocytes (ATCC)
T1 sequence (P06213 other isoform, or with tags, fused parts or gaps): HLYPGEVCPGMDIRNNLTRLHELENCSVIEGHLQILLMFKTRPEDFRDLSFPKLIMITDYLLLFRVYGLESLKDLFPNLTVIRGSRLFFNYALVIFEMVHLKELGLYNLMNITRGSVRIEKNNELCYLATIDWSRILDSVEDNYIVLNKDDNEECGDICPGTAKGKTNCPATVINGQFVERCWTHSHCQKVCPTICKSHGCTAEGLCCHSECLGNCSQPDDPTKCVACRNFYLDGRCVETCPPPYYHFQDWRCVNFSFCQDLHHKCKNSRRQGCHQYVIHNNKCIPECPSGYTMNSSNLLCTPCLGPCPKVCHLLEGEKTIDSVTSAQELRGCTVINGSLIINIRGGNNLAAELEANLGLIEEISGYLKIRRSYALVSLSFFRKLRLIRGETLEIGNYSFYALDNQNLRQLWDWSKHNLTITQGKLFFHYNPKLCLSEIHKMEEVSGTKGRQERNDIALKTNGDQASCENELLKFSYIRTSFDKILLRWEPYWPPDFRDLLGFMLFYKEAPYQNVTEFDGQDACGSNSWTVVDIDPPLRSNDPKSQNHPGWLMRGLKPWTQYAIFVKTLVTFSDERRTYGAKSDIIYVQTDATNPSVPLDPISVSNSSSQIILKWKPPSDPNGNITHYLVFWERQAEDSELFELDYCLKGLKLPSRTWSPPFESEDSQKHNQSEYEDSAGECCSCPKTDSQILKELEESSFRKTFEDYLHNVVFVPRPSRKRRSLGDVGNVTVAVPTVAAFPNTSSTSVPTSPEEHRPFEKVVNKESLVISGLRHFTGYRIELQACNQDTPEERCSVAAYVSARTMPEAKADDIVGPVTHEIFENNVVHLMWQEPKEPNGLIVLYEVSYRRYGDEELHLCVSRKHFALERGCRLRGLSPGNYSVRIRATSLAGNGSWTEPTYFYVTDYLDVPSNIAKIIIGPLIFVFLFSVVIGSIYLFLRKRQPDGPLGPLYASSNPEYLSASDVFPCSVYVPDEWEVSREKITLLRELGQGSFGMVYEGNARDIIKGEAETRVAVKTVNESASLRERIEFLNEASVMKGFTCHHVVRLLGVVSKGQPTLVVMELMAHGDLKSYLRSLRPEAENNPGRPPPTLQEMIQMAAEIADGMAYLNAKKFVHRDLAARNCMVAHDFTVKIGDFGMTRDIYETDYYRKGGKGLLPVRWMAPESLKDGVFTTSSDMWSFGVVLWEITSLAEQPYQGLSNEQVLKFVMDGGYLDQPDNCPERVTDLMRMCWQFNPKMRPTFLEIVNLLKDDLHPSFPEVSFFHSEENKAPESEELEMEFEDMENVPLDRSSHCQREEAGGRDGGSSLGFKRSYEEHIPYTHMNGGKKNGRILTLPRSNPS
Experiment: radioligand binding; competition with [125I]-monoiodotyrosyl-TyrA14-insulin for IR-A in cell membranes of human IM-9 lymphocytes; each curve in duplicate, Kd from at least three curves; non-linear regression for one site binding with ligand depletion
Conditions: one partner purified

| Binder | Kd |
| --- | --- |
| Ada insulin mimetic (designed binder, linker I:C-II:C via adamantane scaffold; not fully specified (C-terminus); also: mixture of two diastereoisomers, minimal Site-1 peptide, derived from the phage display peptides S597 and S661; minimal Site-2 peptide, derived from the phage display peptides S597 and S661; Two peptides joined through their C-termini by an adamantane scaffold; Ada is an inseparable mixture of two diastereoisomers; only one fits the cryo-EM density; also called antagonist; source: synthetic (solid-phase peptide synthesis)) peptide 1: Ac-FYDWFERQ peptide 2: SLEEEWAQ | 395 nM |
| Trim insulin mimetic (designed binder, linker I:C-II:C via trimesic acid scaffold; not fully specified (C-terminus); also: linker at chain A 8 at chain B 8 to a chain's C-terminus via trimesic acid scaffold, minimal Site-1 peptide, derived from the phage display peptides S597 and S661; minimal Site-2 peptide, derived from the phage display peptides S597 and S661; Two peptides joined through their C-termini by a trimesic acid scaffold; also called antagonist; source: synthetic (solid-phase peptide synthesis)) peptide 1: Ac-FYDWFERQ peptide 2: SLEEEWAQ | 1260 nM |
